We go through nine molecules from patent US20120090043A1, “TARGETS FOR RETROVIRUS ASSOCIATED DISEASES” (priority 2009, published 2012).

B1: SPG21: human host interactor protein, Gene ID 51324, expressed from transfected ORF vector (protein)
chain: MGEIKVSPDYNWFRGTVPLKKIIVDDDDSKIWSLYDAGPRSIRCPLIFLPPVSGTADVFFRQILALTGWGYRVIALQYPVYWDHLEFCDGFRKLLDHLQLDKVHLFGASLGGFLAQKFAEYTHKSPRVHSLILCNSFSDTSIFNQTWTANSFWLMPAFMLKKIVLGNFSSGPVDPMMADAIDFMVDRLESLGQSELASRLTLNCQNSYVEPHKIRDIPVTIMDVFDQSALSTEAKEEMYKLYPNARRAHLKTGGNFPYLCRSAEVNLYVQIHLLQFHGTKYAAIDPSMVSAEELEVQKGSLGISQEEQ
B2: LENG1: human host interactor protein, Gene ID 79165, expressed from transfected ORF vector (protein)
chain: MNILPKKSWHVRNKDNVARVRRDEAQAREEEKERERRVLLAQQEARTEFLRKKARHQNSLPELEAAEAGAPGSGPVDLFRELLEEGKGVIRGNKEYKEEKRQEKERQEKALGILTYLGQSAAEAQTQPPWYQLPPGRGGPPPGPAPDEKIKSRLDPLREMQKHLGKKRQHGGDEGSRSRKEKEGSEKQRPKEPPSLDQLRAERLRREAAERSRAEALLARVQGRALQEGQPEEDETDDRRRRYNSQFNPQLARRPRQQDPHLTH
B3: NIF3L1: human host interactor protein, Gene ID 60491, expressed from transfected ORF vector (protein)
chain: MLSSCVRPVPTTVRFVDSLICNSSRSFMDLKALLSSLNDFASLSFAESWDNVGLLVEPSPPHTVNTLFLTNDLTEEVMEEVLQKKADLILSYHPPIFRPMKRITWNTWKERLVIRALENRVGIYSPHTAYDAAPQGVNNWLAKGLGACTSRPIHPSKAPNYPTEGNHRVEFNVNYTQDLDKVMSAVKGIDGVSVTSFSARTGNEEQTRINLNCTQKALMQVVDFLSRNKQLYQKTEILSLEKPLLLHTGMGRLCTLDESVSLATMIDRIKRHLKLSHIRLALGVGRTLESQVKVVALCAGSGSSVLQGVEADLYLTGEMSHHDTLDAASQGINVILCEHSNTERGFLSDLRDMLDSHLENKINIILSETDRDPLQVV
B4: NEFL: human host interactor protein, Gene ID 4747, expressed from transfected ORF vector (protein)
chain: MSSFSYEPYYSTSYKRRYVETPRVHISSVRSGYSTARSAYSSYSAPVSSSLSVRRSYSSSSGSLMPSLENLDLSQVAAISNDLKSIRTQEKAQLQDLNDRFASFIERVHELEQQNKVLEAELLVLRQKHSEPSRFRALYEQEIRDLRLAAEDATNEKQALQGEREGLEETLRNLQARYEEEVLSREDAEGRLMEARKGADEAALARAELEKRIDSLMDEISFLKKVHEEEIAELQAQIQYAQISVEMDVTKPDLSAALKDIRAQYEKLAAKNMQNAEEWFKSRFTVLTESAAKNTDAVRAAKDEVSESRRLLKAKTLEIEACRGMNEALEKQLQELEDKQNADISAMQDTINKLENELRTTKSEMARYLKEYQDLLNVKMALDIEIAAYRKLLEGEETRLSFTSVGSITSGYSQSSQVFGRSAYGGLQTSSYLMSTRSFPSYYTSHVQEEQIEVEETIEAAKAEEAKDEPPSEGEAEEEEKDKEEAEEEEAAEEEEAAKEESEEAKEEEEGGEGEEGEETKEAEEEEKKVEGAGEEQAAKKKD
B5: RNPS1: human host interactor protein, Gene ID 10921, expressed from transfected ORF vector (protein)
chain: MDLSGVKKKSLLGVKENNKKSSTRAPSPTKRKDRSDEKSKDRSKDKGATKESSEKDRGRDKTRKRRSASSGSSSTRSRSSSTSSSGSSTSTGSSSGSSSSSASSRSGSSSTSRSSSSSSSSGSPSPSRRRHDNRRRSRSKSKPPKRDEKERKRRSPSPKPTKVHIGRLTRNVTKDHIMEIFSTYGKIKMIDMPVERMHPHLSKGYAYVEFENPDEAEKALKHMDGGQIDGQEITATAVLAPWPRPPPRRFSPPRRMLPPPPMWRRSPPRMRRRSRSPRRRSPVRRRSRSPGRRRHRSRSSSNSSR
B6: KIF9: human host interactor protein, Gene ID 64147, expressed from transfected ORF vector (protein)
chain: MGTRKKVHAFVRVKPTDDFAHEMIRYGDDKRSIDIHLKKDIRRGVVNNQQTDWSFKLDGVLHDASQDLVYETVAKDVVSQALDGYNGTIMCYGQTGAGKTYTMMGATENYKHRGILPRALQQVFRMIEERPTHAITVRVSYLEIYNESLFDLLSTLPYVGPSVTPMTIVENPQGVFIKGLSVHLTSQEEDAFSLLFEGETNRIIASHTMNKNSSRSHCIFTIYLEAHSRTLSEEKYITSKINLVDLAGSERLGKSGSEGQVLKEATYINKSLSFLEQAIIALGDQKRDHIPFRQCKLTHALKDSLGGNCNMVLVTNIYGEAAQLEETLSSLRFASRMKLVTTEPAINEKYDAERMVKNLEKELALLKQELAIHDSLTNRTFVTYDPMDEIQIAEINSQVRRYLEGTLDEIDIISLRQIKEVFNQFRVVLSQQEQEVESTLRRKYTLIDRNDFAAISAIQKAGLVDVDGHLVGEPEGQNFGLGVAPFSTKPGKKAKSKKTFKEPLSSLARKEGASSPVNGKDLDYVSTSKTQLVPSSKDGDVKDMLSRDRETSSIEPLPSDSPKEELRPIRPDTPPSKPVAFEEFKNEQGSEINRIFKENKSILNERRKRASETTQHINAIKREIDVTKEALNFQKSLREKQGKYENKGLMIIDEEEFLLILKLKDLKKQYRSEYQDLRDLRAEIQYCQHLVDQCRHRLLMEFDIWYNESFVIPEDMQMALKPGGSIRPGMVPVNRIVSLGEDDQDKFSQLQQRVLPEGPDSISFYNAKVKIEQKHNYLKTMMGLQQAHRK
B7: KLC3: human host interactor protein, Gene ID 147700, expressed from transfected ORF vector (protein)
chain: MSVQVAAPGSAGLGPERLSPEELVRQTRQVVQGLEALRAEHHGLAGHLAEALAGQGPAAGLEMLEEKQQVVSHSLEAIELGLGEAQVLLALSAHVGALEAEKQRLRSQARRLAQENVWLREELEETQRRLRASEESVAQLEEEKRHLEFLGQLRQYDPPAESQQSESPPRRDSLASLFPSEEEERKGPEAAGAAAAQQGGYEIPARLRTLHNLVIQYAGQGRYEVAVPLCRQALEDLERSSGHCHPDVATMLNILALVYRDQNKYKEATDLLHDALQIREQTLGPEHPAVAATLNNLAVLYGKRGRYREAEPLCQRALEIREKVLGADHPDVAKQLNNLALLCQNQGKFEDVERHYARALSIYEALGGPHDPNVAKTKNNLASAYLKQNKYQQAEELYKEILHKEDLPAPLGAPNTGTAGDAEQALRRSSSLSKIRESIRRGSEKLVSRLRGEAAAGAAGMKRAMSLNTLNVDAPRAPGTQFPSWHLDKAPRTLSASTQDLSPH
B8: MYEF2: human host interactor protein, Gene ID 50804, expressed from transfected ORF vector (protein)
chain: MADANKAEVPGATGGDSPHLQPAEPPGEPRREPHPAEAEKQQPQHSSSSNGVKMENDESAKEEKSDLKEKSTGSKKANRFHPYSKDKNSGAGEKKGPNRNRVFISNIPYDMKWQAIKDLMREKVGEVTYVELFKDAEGKSRGCGVVEFKDEEFVKKALETMNKYDLSGRPLNIKEDPDGENARRALQRTGGSFPGGHVPDMGSGLMNLPPSILNNPNIPPEVISNLQAGRLGSTIFVANLDFKVGWKKLKEVFSIAGTVKRADIKEDKDGKSRGMGTVTFEQAIEAVQAISMFNGQFLFDRPMHVKMDDKSVPHEEYRSHDGKTPQLPRGLGGIGMGLGPGGQPISASQLNIGGVMGNLGPGGMGMDGPGFGGMNRIGGGIGFGGLEAMNSMGGFGGVGRMGELYRGAMTSSMERDFGRGDIGINQGFGDSFGRLGSAMIGGFAGRIGSSNMGPVGSGISGGMGSMNSVTGGMGMGLDRMSSSFDRMGPGIGAILERSIDMDRGFLSGPMGSGMRERIGSKGNQIFVRNLPFDLTWQKLKEKFSQCGHVMFAEIKMENGKSKGCGTVRFDSPESAEKACRIMNGIKISGREIDVRLDRNA
B9: MAD1L1: human host interactor protein, Gene ID 8379, expressed from transfected ORF vector (protein)
chain: MEDLGENTMVLSTLRSLNNFISQRVEGGSGLDISTSAPGSLQMQYQQSMQLEERAEQIRSKSHLIQVEREKMQMELSHKRARVELERAASTSARNYEREVDRNQELLTRIRQLQEREAGAEEKMQEQLERNRQCQQNLDAASKRLREKEDSLAQAGETINALKGRISELQWSVMDQEMRVKRLESEKQELQEQLDLQHKKCQEANQKIQELQASQEARADHEQQIKDLEQKLSLQEQDAAIVKNMKSELVRLPRLERELKQLREESAHLREMRETNGLLQEELEGLQRKLGRQEKMQETLVGLELENERLLAKLQSWERLDQTMGLSIRTPEDLSRFVVELQQRELALKDKNSAVTSSARGLEKARQQLQEELRQVSGQLLEERKKRETHEALARRLQKRVLLLTKERDGMRAILGSYDSELTPAEYSPQLTRRMREAEDMVQKVHSHSAEMEAQLSQALEELGGQKQRADMLEMELKMLKSQSSSAEQSFLFSREEADTLRLKVEELEGERSRLEEEKRMLEAQLERRALQGDYDQSRTKVLHMSLNPTSVARQRLREDHSQLQAECERLRGLLRAMERGGTVPADLEAAAASLPSSKEVAELKKQVESAELKNQRLKEVFQTKIQEFRKACYTLTGYQIDITTENQYRLTSLYAEHPGDCLIFKATSPSGSKMQLLETEFSHTVGELIEVHLRRQDSIPAFLSSLTLELFSRQTVA

The subject of the test is HTLV-1 LTR promoter transactivation by HTLV-1 Tax. The test is described as follows: Transactivation assay, HTLV-1 LTR luciferase reporter with HTLV-1 Tax. Format: cell-based. The following applies: HEK293 cells co-transfected with pHTLV1LTR-Luc, HTLV-1 Tax and the human ORF; relative luciferase activity 24 h post-transfection; positive if >=2 or <=0.5 and p<0.05. An excerpt: Twenty-four hours post-transfection, cells were washed three times with PBS, lysed and luciferase activities determined from two independent transfection experiments in triplicate. We computed a paired t-test to assess the difference of the means between samples with and without the human interactor. For a trial to be considered positive, the relative luciferase activities has to be >=2 or <=0.5, and the p-value of the t-test<0.05.
Expression vectors encoding human ORFs and HIV-1 Tat or HTLV-1 Tax proteins were tested in a transactivation reporter assay against reporter plasmids harboring HIV-1 or HTLV-1 viral promoter sequences cloned upstream of the luciferase reporter gene. […] Wherever not expressly specified, constructs used herein were generally made by sub-cloning entry clones from the ORFeome V3.1 into suitable destination vectors.
For B1, the HTLV_LTR transactiv. worked out at 0.21 fold change. For B2 the value was 0.34 fold change; for B3, 0.39 fold change.

Turning to B4, the HTLV_LTR transactiv. is 0.45 fold change. B5 returned an HTLV_LTR transactiv. of 11.12 fold change. With B6 the figure was 0.37 fold change; with B7, 0.31 fold change. Consider B8, for which the HTLV_LTR transactiv. stood at 2.53 fold change.

The molecule B9 displayed an HTLV_LTR transactiv. of 0.20 fold change.
